Entries after “also recorded” stand apart in the source; their conditions may differ.
Tests used:
β2AR [1] = target: T1, β2AR (Homo sapiens, UniProt P07550); experiment: Fluorescent (CPM) thermal stability assay of detergent-solubilized agonist-bound β2AR; set-up: made in house
Description: (§1) The effect of conformational selective nanobodies on the thermostability and the subsequent aggregation of the β2AR receptor was analyzed using a fluorescent thermal stability assay (FIG. 13) and size exclusion chromatography (FIGS. 14A and 14B).
The fluorescent thermal stability assay makes use of the thiol-specific fluorochrome N-[4-(7-diethylamino-4-methyl-3-coumarinyl)phenyl]maleimide (CPM) to measure the chemical reactivity of the native cysteines embedded in the protein interior as a sensor for the overall integrity of the folder state of membrane proteins (Alexandrov et al. 2008). For the fluorescent thermal stability assay, detergent-solubilized receptor (in 0.1% dodecylmaltoside, 100 mM NaCl and 20 mM Hepes pH 7.5) was pre-incubated with isoproterenol (10 μM) in the presence or absence of a 2:1 molar excess of Nb80 for one hour at RT. Samples were then mixed with CPM fluorophore and incubated for two minutes at temperatures ranging from 10° C. to 94° C. and fluorescence emission was collected. […] Unfolding transitions could be described by a simple two-state model, including the native (folded) and the denaturated state, representing the lower and upper plateaus of the melting curves.

human β1AR = human β1AR (Homo sapiens, UniProt P08588); experiment: [3H]-DHA competition binding on β1AR with or without Nb80
human β1AR, sequence (P08588 whole entry): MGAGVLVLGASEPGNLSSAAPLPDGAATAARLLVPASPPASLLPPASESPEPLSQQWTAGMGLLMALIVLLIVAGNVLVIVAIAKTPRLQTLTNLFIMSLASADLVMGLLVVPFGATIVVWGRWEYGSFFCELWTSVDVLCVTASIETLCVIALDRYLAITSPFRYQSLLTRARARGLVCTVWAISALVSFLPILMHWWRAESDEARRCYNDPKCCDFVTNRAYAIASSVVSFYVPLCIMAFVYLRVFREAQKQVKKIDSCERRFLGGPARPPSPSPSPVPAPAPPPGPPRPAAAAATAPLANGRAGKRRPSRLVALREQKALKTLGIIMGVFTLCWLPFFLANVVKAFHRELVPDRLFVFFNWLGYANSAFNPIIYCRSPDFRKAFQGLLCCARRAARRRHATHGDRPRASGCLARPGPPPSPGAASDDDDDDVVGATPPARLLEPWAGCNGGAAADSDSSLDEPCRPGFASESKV
Excerpt: Active state stabilizing Nanobodies that are cross-reactive to related receptors can be used as a tool to stabilize a conformational state of those related receptors. […] Using the PISA server (Krissinel & Henrick, 2007) and based on the crystal structure of the Nb80-β2AR complex, 30 β2AR AA residues were identified to interact with Nb80 in the β2AR-Nb80 interface. […] The remaining interface residues are lysines in β2AR and have been substituted by arginines in β1AR corresponding to conserved substitutions (shown in grey boxes in FIG. 17). It thus appears that both receptors share a very similar binding site for Nb80. Based on this analysis, we also measured the effect of Nb80 on the affinity of β1AR for the agonist isoproterenol and the inverse agonist […] (FIG. 18).

β2AR-T4L [2] = experiment: [3H]-DHA competition binding on β2AR-T4L reconstituted in HDL particles, with or without Nb80; set-up: species or system human; conditions: β2AR-T4L/HDL + Nb80 versus alone
β2AR-T4L [3] = target: T2, β2AR-T4L (Homo sapiens, UniProt P07550, DEL231-262, form not given); experiment: as above; conditions: β2AR-T4L/HDL
T2 construct: The β2AR and β2AR-T4L (both truncated at position 365) purified as previously described (Rosenbaum et al. 2007); fused on or other part: T4 lysozyme inserted in place of the third intracellular loop between TM5 and TM6 as a crystallisation handle (published construct: residues 2-161, C54T/C97A); Reconstituted in HDL particles

dopamine D1 receptor = dopamine D1 receptor (Homo sapiens, UniProt P21728); experiment: Effect of Nb80 on unrelated receptor; format: binding; conditions: data not shown
dopamine D1 receptor, sequence (P21728 whole entry, species assumed): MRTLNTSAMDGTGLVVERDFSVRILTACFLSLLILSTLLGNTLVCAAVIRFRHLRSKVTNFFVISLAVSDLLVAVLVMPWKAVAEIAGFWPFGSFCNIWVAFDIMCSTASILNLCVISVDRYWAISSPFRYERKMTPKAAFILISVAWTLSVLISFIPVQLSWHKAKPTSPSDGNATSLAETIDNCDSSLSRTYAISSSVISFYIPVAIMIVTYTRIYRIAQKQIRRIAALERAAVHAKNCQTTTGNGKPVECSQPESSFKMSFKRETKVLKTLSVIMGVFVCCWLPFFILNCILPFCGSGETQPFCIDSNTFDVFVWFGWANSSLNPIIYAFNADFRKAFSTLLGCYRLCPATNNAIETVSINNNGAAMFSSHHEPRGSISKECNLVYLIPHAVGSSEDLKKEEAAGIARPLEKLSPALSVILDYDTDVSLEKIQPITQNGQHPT

β2AR [4] = experiment: [3H]-DHA competition binding on β2AR reconstituted in HDL particles, with or without Gs or Nb80; set-up: species or system human; conditions: β2AR/HDL + Nb80 versus alone
β2AR [5] = target: T1, β2AR; experiment: as above; set-up: recombinant β2AR truncated at Gly365 (β2AR-365); made in house; host or cells: Sf9 insect cells; conditions: β2AR/HDL
β2AR [6] = target: T1, β2AR; conditions: agonist competition binding, Sf9 membranes
Description: The IC50 values used for calculations of Ki values were obtained from means of pIC50 values determined by nonlinear regression analysis using Prism (GraphPad Software, San Diego, Calif.) and the s.e. interval from pIC50±s.e.

β2AR [7] = target: T1, β2AR; experiment: Temperature-induced aggregation of agonist-bound β2AR analyzed by SEC; set-up: made in house; conditions: isoproterenol 10 μM, 2:1 molar excess of Nb80, 10 minutes at increasing temperatures
Description: as §1
We also analyzed the effect of Nb80 on the thermal unfolding and aggregation of the agonist-bound receptor by size exclusion chromatography (SEC). For this experiment, dodecylmaltoside-solubilized receptor was pre-incubated with isoproterenol (10 μM) in the presence or absence of a 2:1 molar excess of Nb80 for 45 minutes at RT. Samples were next incubated for 10 minutes at increasing temperatures and subsequently analyzed by SEC (FIGS. 14A and 14B).

β2AR [8] = target: T1, β2AR; experiment: Monobromobimane fluorescence of purified mBBr-labeled β2AR; format: biochemical; set-up: made in house; conditions: 1 μM nanobody, β2AR bound to full agonist isoproterenol
Excerpt: To investigate the effect of nanobodies on movement of the cytoplasmic domain of TM6 we labeled purified β2AR at C265 with monobromobimane (mBB-β2AR). […] In mBB-β2AR, the addition of agonist together with G protein results in larger fluorescent changes than either agonist or G protein alone. This is compatible with the cooperative interactions observed in agonist competition binding assays (Yao et al. 2009).
Purified β2AR was reacted with 1:1 equivalent of monobromobimane (mBBr, Invitrogen) in 100 mM NaCl, 20 mM HEPES, pH 7.5, 0.1% dodecyl maltoside and incubated overnight on ice in the dark. The fluorophore-labeled receptor was purified right before use by gel filtration on a desalting column equilibrated with the same buffer. […] All experiments were performed at 25° C. […] To determine the effect of nanobodies and ligands, three individual labeled protein samples were incubated with 1 μM nanobody or 10 μM Isoproterenol or both. Emission spectra of the samples were taken after 1 hour incubation.

β2AR [9] = experiment: Size exclusion chromatography of nanobody with purified agonist- or inverse agonist-bound β2AR; format: binding, human; conditions: 20 μM β2AR bound to agonist or inverse agonist, 40 μM nanobody
Description: The mixture was then analyzed by Size Exclusion Chromatography (SEC), which separates protein on the basis of size. Seven of the nanobodies bound to purified β2AR and migrated as a complex on SEC only in the presence of agonist and not an inverse agonist (an example is shown in FIG. 1, Panel a, FIGS. 3A, 3B, and FIG. 4).
Agonist selective nanobodies were identified by size exclusion chromatography following incubation of 20 μM agonist or inverse agonist-(carazolol-) bound β2AR-365N for one hour at RT in the absence or presence of 40 μM nanobody.

β2AR [10] = target: T1, β2AR; format: binding; conditions: full-length β2AR membranes, Nb80 versus irrelevant nanobody

B1: NB80: β2AR-specific nanobody, SEQ ID NO:4; lead nanobody stabilizing the active state (protein, listed as Lama glama)
VHH: QVQLQESGGGLVQAGGSLRLSCAASGSIFSINTMGWYRQAPGKQRELVAAIHSGGSTNYANSVKGRFTISRDNAANTVYLQMNSLKPEDTAVYYCNVKDYGAVLYEYDYWGQGTQVTVSS
With B1 the “apparent melting temperature for β2AR with Nb80” value (β2AR [1]; DDM-solubilized isoproterenol-bound β2AR, 12.0° C. without Nb80) was 24 °C, the “increase of melting temperature (Tm) of the agonist-bound receptor” value (β2AR [1]; isoproterenol 10 μM, 2:1 molar excess of Nb80) was 12 °C and the “effect of Nb80 on affinity of β1AR for CGP20712A” value (human β1AR) was “does not change the affinity”. For the same molecule, the “effect of Nb80 on affinity of β1AR for the agonist isoproterenol” value (human β1AR) was “increased affinity”, the “increase of isoproterenol affinity in the presence of Nb80” value (β2AR-T4L [2]) was 60 fold and the “effect of Nb80 on affinity for the inverse agonist ICI-118,551” value (β2AR-T4L [3]) was “does not increase the affinity”. For the same molecule, the “effect of Nb80 on unrelated receptor” value (dopamine D1 receptor) was “No such effect”, the “increase of isoproterenol affinity in the presence of Nb80” value (β2AR [4]) was 95 fold and the “effect of Nb80 on affinity for the inverse agonist ICI-118,551” value (β2AR [5]) was “does not increase the affinity; also recorded: little effect”. For the same molecule, the “enhancement of the affinity of β2AR for the agonist isoproterenol in the presence of nanobody” value (β2AR [6]) was “two- to thirty-fold”, the “effect on temperature-induced aggregation of agonist-bound receptor (SEC)” value (β2AR [7]) was “protects the agonist-bound receptor against temperature-induced aggregation” and the “nanobody-induced change of mBBr fluorescence” value (β2AR [8]) was “larger changes were observed when both agonist and nanobody were added together; also recorded: stabilizes a more active state of the β2AR”. For the same molecule, the “complex formation with β2AR on SEC” value (β2AR [9]) was “β2AR-agonist-Nb80 complex formation” and the “effect of Nb80 on β2AR affinity for ligands” value (β2AR [10]) was “increases β2AR affinity for agonists but not for antagonists”.
